Values of other authors in article PMC4336166.

Target: clathrin coat (Homo sapiens) (UniProt Q00610)
Sequence of UniProt Q00610 (Q00610 2-1675): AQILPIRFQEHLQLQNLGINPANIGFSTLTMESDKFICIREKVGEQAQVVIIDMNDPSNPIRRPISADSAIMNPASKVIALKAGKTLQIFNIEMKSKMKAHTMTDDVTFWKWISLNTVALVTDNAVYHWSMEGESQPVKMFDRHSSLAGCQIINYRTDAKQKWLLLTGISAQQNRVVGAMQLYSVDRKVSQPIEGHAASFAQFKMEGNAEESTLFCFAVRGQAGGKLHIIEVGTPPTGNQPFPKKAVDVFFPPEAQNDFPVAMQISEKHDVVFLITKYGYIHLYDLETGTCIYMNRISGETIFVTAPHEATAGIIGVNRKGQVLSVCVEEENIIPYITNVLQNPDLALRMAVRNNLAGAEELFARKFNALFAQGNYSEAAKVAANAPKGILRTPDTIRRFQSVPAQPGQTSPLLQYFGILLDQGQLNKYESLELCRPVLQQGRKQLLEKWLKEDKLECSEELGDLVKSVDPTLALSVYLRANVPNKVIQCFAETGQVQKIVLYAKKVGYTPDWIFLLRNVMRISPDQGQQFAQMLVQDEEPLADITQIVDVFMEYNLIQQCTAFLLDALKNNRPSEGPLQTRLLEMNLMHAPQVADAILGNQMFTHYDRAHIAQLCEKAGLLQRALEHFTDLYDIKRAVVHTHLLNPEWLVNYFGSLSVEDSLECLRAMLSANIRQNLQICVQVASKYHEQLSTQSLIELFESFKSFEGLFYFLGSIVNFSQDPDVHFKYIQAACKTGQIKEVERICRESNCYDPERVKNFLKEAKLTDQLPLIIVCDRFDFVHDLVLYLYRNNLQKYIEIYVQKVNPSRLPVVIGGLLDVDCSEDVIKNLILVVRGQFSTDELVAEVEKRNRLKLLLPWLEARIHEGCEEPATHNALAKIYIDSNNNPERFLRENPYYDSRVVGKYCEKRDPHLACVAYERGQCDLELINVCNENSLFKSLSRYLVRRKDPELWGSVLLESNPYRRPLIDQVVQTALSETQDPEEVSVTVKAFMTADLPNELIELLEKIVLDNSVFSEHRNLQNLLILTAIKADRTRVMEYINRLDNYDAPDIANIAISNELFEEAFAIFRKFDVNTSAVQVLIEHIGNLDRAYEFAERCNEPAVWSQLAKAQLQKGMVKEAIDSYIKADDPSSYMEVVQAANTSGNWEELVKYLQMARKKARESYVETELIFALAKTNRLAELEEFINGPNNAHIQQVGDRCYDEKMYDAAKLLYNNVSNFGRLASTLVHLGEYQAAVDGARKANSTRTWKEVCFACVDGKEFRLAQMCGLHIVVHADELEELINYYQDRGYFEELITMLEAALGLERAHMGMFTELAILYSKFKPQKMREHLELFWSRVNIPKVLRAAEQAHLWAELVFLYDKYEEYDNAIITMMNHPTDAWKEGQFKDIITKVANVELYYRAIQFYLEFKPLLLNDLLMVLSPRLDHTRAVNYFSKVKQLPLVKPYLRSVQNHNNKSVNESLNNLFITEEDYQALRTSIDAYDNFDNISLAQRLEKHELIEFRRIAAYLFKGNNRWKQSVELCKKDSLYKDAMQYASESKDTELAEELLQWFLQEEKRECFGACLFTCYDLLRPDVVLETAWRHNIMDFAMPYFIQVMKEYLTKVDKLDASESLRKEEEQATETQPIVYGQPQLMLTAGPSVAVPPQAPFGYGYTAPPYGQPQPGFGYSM

Kd: 123 µM
Substance: epsin CLAP domain (from UniProt Q9Y6I3)
